{"source": "the supplement of paper PMC10567573", "parents": {"B1": {"name": "PTPN9 (parent)", "chain": "ILFSLPPALDWDSVHVPGPHAMTI"}}}
{"variants_of": "B1", "experiment": "protein stability index of a GFP-peptide fusion (GPS, HEK-293T) (PSI 1-6); higher = more stable", "conditions": "c terminus: a fixed tail appended"}
{"variant": "ILFSLPPCLDWDSVHVPGPHAMTI", "note": "[A8C]", "protein stability index": 3.81}
{"variant": "ILFSLPPILDWDSVHVPGPHAMTI", "note": "[A8I]", "protein stability index": 1.81}
{"variant": "ILFSLPPHLDWDSVHVPGPHAMTI", "note": "[A8H]", "protein stability index": 2.5}
{"variant": "ILFSLPPNLDWDSVHVPGPHAMTI", "note": "[A8N]", "protein stability index": 2.04}
{"variant": "ILFSLPPKLDWDSVHVPGPHAMTI", "note": "[A8K]", "protein stability index": 2.87}
{"variant": "ILFSLPPTLDWDSVHVPGPHAMTI", "note": "[A8T]", "protein stability index": 3.32}
{"variant": "ILFSLPPSLDWDSVHVPGPHAMTI", "note": "[A8S]", "protein stability index": 3.4}
{"variant": "ILFSLPPMLDWDSVHVPGPHAMTI", "note": "[A8M]", "protein stability index": 4.44}
{"variant": "ILFSLPPWLDWDSVHVPGPHAMTI", "note": "[A8W]", "protein stability index": 2.68}
{"variant": "ILFSLPPQLDWDSVHVPGPHAMTI", "note": "[A8Q]", "protein stability index": 3.82}
{"variant": "ILFSLPPRLDWDSVHVPGPHAMTI", "note": "[A8R]", "protein stability index": 2.43}
{"variant": "ILFSLPPGLDWDSVHVPGPHAMTI", "note": "[A8G]", "protein stability index": 2.36}
{"variant": "ILFSLPPALDWDSMHVPGPHAMTI", "note": "[V14M]", "protein stability index": 3.43}
{"variant": "ILFSLPPALDWDSDHVPGPHAMTI", "note": "[V14D]", "protein stability index": 1.5}
{"variant": "ILFSLPPALDWDSIHVPGPHAMTI", "note": "[V14I]", "protein stability index": 2.09}
{"variant": "ILFSLPPALDWDSGHVPGPHAMTI", "note": "[V14G]", "protein stability index": 2.1}
{"variant": "ILFSLPPALDWDSYHVPGPHAMTI", "note": "[V14Y]", "protein stability index": 2.26}
{"variant": "ILFSLPPALDWDSTHVPGPHAMTI", "note": "[V14T]", "protein stability index": 2.38}
{"variant": "ILFSLPPALDWDSFHVPGPHAMTI", "note": "[V14F]", "protein stability index": 4.29}
{"variant": "ILFSLPPALDWDSNHVPGPHAMTI", "note": "[V14N]", "protein stability index": 2.41}
{"variant": "ILFSLPPALDWDSRHVPGPHAMTI", "note": "[V14R]", "protein stability index": 2.75}
{"variant": "ILFSLPPALDWDSKHVPGPHAMTI", "note": "[V14K]", "protein stability index": 1.66}
{"variant": "ILFSLPPALDWDSCHVPGPHAMTI", "note": "[V14C]", "protein stability index": 2.02}
{"variant": "ILFSLPPALDWDSLHVPGPHAMTI", "note": "[V14L]", "protein stability index": 3.32}
{"variant": "ILFSLPPALDWDSEHVPGPHAMTI", "note": "[V14E]", "protein stability index": 1.95}
{"variant": "ILFSLPPALDWDSQHVPGPHAMTI", "note": "[V14Q]", "protein stability index": 2.57}
{"variant": "ILFSLPPALDWDSHHVPGPHAMTI", "note": "[V14H]", "protein stability index": 2.43}
{"variant": "ILFSLPPALDWDSSHVPGPHAMTI", "note": "[V14S]", "protein stability index": 2.17}
{"variant": "ILFSLPPALDWDSVHQPGPHAMTI", "note": "[V16Q]", "protein stability index": 1.81}
{"variant": "ILFSLPPALDWDSVHTPGPHAMTI", "note": "[V16T]", "protein stability index": 3.33}
{"variant": "ILFSLPPALDWDSVHIPGPHAMTI", "note": "[V16I]", "protein stability index": 3.19}
{"variant": "ILFSLPPALDWDSVHDPGPHAMTI", "note": "[V16D]", "protein stability index": 2.27}
{"variant": "ILFSLPPALDWDSVHEPGPHAMTI", "note": "[V16E]", "protein stability index": 1.38}
{"variant": "ILFSLPPALDWDSVHCPGPHAMTI", "note": "[V16C]", "protein stability index": 3.24}
{"variant": "ILFSLPPALDWDSVHKPGPHAMTI", "note": "[V16K]", "protein stability index": 2.54}
{"variant": "ILFSLPPALDWDSVHAPGPHAMTI", "note": "[V16A]", "protein stability index": 1.93}
{"variant": "ILFSLPPALDWDSVHGPGPHAMTI", "note": "[V16G]", "protein stability index": 1.99}
{"variant": "ILFSLPPALDWDSVHHPGPHAMTI", "note": "[V16H]", "protein stability index": 2.2}
{"variant": "ILFSLPPALDWDSVHRPGPHAMTI", "note": "[V16R]", "protein stability index": 2.68}
{"variant": "ILFSLPPALDWDSVHFPGPHAMTI", "note": "[V16F]", "protein stability index": 2.42}
{"variant": "ILFSLPPALDWDSVHWPGPHAMTI", "note": "[V16W]", "protein stability index": 2.95}
{"variant": "ILFSLPPALDWDSVHLPGPHAMTI", "note": "[V16L]", "protein stability index": 2.68}
{"variant": "ILFSLPPALDWDSVHMPGPHAMTI", "note": "[V16M]", "protein stability index": 3.21}
{"variant": "ILFSLPPALDWDSVHSPGPHAMTI", "note": "[V16S]", "protein stability index": 3.71}
{"variant": "ILFSLPPALDWDSVHNPGPHAMTI", "note": "[V16N]", "protein stability index": 1.74}
{"variant": "ILFSLPPALDWDAVHVPGPHAMTI", "note": "[S13A]", "protein stability index": 1.88}
{"variant": "ILFSLPPALDWDLVHVPGPHAMTI", "note": "[S13L]", "protein stability index": 2.65}
{"variant": "ILFSLPPALDWDVVHVPGPHAMTI", "note": "[S13V]", "protein stability index": 2.03}
{"variant": "ILFSLPPALDWDQVHVPGPHAMTI", "note": "[S13Q]", "protein stability index": 2.06}
{"variant": "ILFSLPPALDWDGVHVPGPHAMTI", "note": "[S13G]", "protein stability index": 2.02}
{"variant": "ILFSLPPALDWDIVHVPGPHAMTI", "note": "[S13I]", "protein stability index": 3.25}
{"variant": "ILFSLPPALDWDYVHVPGPHAMTI", "note": "[S13Y]", "protein stability index": 3.24}
{"variant": "ILFSLPPALDWDRVHVPGPHAMTI", "note": "[S13R]", "protein stability index": 3.77}
{"variant": "ILFSLPPALDWDMVHVPGPHAMTI", "note": "[S13M]", "protein stability index": 2.1}
{"variant": "ILFSLPPALDWDKVHVPGPHAMTI", "note": "[S13K]", "protein stability index": 2.36}
{"variant": "ILFSLPPALDWDPVHVPGPHAMTI", "note": "[S13P]", "protein stability index": 2.4}
{"variant": "ILFSLPPALDWDDVHVPGPHAMTI", "note": "[S13D]", "protein stability index": 2.79}
{"variant": "ILFSLPPALDWDNVHVPGPHAMTI", "note": "[S13N]", "protein stability index": 1.81}
{"variant": "ILFSLPPALDWDTVHVPGPHAMTI", "note": "[S13T]", "protein stability index": 2.42}
{"variant": "ILFSLPPALDWDSVHVKGPHAMTI", "note": "[P17K]", "protein stability index": 2.49}
{"variant": "ILFSLPPALDWDSVHVFGPHAMTI", "note": "[P17F]", "protein stability index": 3.17}
{"variant": "ILFSLPPALDWDSVHVCGPHAMTI", "note": "[P17C]", "protein stability index": 1.49}
{"variant": "ILFSLPPALDWDSVHVMGPHAMTI", "note": "[P17M]", "protein stability index": 3.11}
{"variant": "ILFSLPPALDWDSVHVWGPHAMTI", "note": "[P17W]", "protein stability index": 4.48}
{"variant": "ILFSLPPALDWDSVHVAGPHAMTI", "note": "[P17A]", "protein stability index": 2.78}
{"variant": "ILFSLPPALDWDSVHVNGPHAMTI", "note": "[P17N]", "protein stability index": 2.71}
{"variant": "ILFSLPPALDWDSVHVIGPHAMTI", "note": "[P17I]", "protein stability index": 2.67}
{"variant": "ILFSLPPALDWDSVHVLGPHAMTI", "note": "[P17L]", "protein stability index": 2.79}
{"variant": "ILFSLPPALDWDSVHVTGPHAMTI", "note": "[P17T]", "protein stability index": 2.02}
{"variant": "ILFSLPPALDWDSVHVGGPHAMTI", "note": "[P17G]", "protein stability index": 1.94}
{"variant": "ILFSLPPALDWDSVHVRGPHAMTI", "note": "[P17R]", "protein stability index": 2.87}
{"variant": "ILFSLPPALDWDSVHVDGPHAMTI", "note": "[P17D]", "protein stability index": 2.21}
{"variant": "ILFSLPPALDWDSVHVSGPHAMTI", "note": "[P17S]", "protein stability index": 2.82}
{"variant": "ILFSLPPALDWDSVHVQGPHAMTI", "note": "[P17Q]", "protein stability index": 2.94}
{"variant": "ILFSLPPALDWDSVHVHGPHAMTI", "note": "[P17H]", "protein stability index": 1.42}
{"variant": "ILFSLPPALDWDSVHVEGPHAMTI", "note": "[P17E]", "protein stability index": 2.47}
{"variant": "ILFSLPPALDWDSVDVPGPHAMTI", "note": "[H15D]", "protein stability index": 2.08}
{"variant": "ILFSLPPALDWDSVQVPGPHAMTI", "note": "[H15Q]", "protein stability index": 1.81}
{"variant": "ILFSLPPALDWDSVYVPGPHAMTI", "note": "[H15Y]", "protein stability index": 3.15}
{"variant": "ILFSLPPALDWDSVCVPGPHAMTI", "note": "[H15C]", "protein stability index": 2.36}
{"variant": "ILFSLPPALDWDSVGVPGPHAMTI", "note": "[H15G]", "protein stability index": 2.83}
{"variant": "ILFSLPPALDWDSVAVPGPHAMTI", "note": "[H15A]", "protein stability index": 3.31}
{"variant": "ILFSLPPALDWDSVPVPGPHAMTI", "note": "[H15P]", "protein stability index": 3.2}
{"variant": "ILFSLPPALDWDSVLVPGPHAMTI", "note": "[H15L]", "protein stability index": 4.13}
{"variant": "ILFSLPPALDWDSVTVPGPHAMTI", "note": "[H15T]", "protein stability index": 2.94}
{"variant": "ILFSLPPALDWDSVSVPGPHAMTI", "note": "[H15S]", "protein stability index": 1.85}
{"variant": "ILFSLPPALDWDSVEVPGPHAMTI", "note": "[H15E]", "protein stability index": 2}
{"variant": "ILFSLPPALDWDSVIVPGPHAMTI", "note": "[H15I]", "protein stability index": 2.88}
{"variant": "ILFSLPPALDWDSVFVPGPHAMTI", "note": "[H15F]", "protein stability index": 2.99}
{"variant": "ILFSLPPALDWDSVKVPGPHAMTI", "note": "[H15K]", "protein stability index": 2.48}
{"variant": "ILFSLPPALDWDSVRVPGPHAMTI", "note": "[H15R]", "protein stability index": 1.44}
{"variant": "ILFSLPPALDWDSVVVPGPHAMTI", "note": "[H15V]", "protein stability index": 3.57}
{"variant": "ILFSLPVALDWDSVHVPGPHAMTI", "note": "[P7V]", "protein stability index": 4.23}
{"variant": "ILFSLPRALDWDSVHVPGPHAMTI", "note": "[P7R]", "protein stability index": 2.18}
